{"source": "patent US20020127702", "about": "“Methods and compositions for regulating cell cycle progression” (published 2002)", "binders": {"B1": {"name": "consensus mutant position 6 (dsDNA)", "DNA 1": "GATTTCACATAA", "DNA 2": "TTATGTGAAATC"}, "B2": {"name": "consensus site single-stranded antisense (ssDNA)", "DNA": "TTATGTTAAATC", "modifications": "[NONE]"}, "B3": {"name": "consensus mutant position 4 (dsDNA)", "DNA 1": "GATGTAACATAA", "DNA 2": "TTATGTTACATC"}, "B4": {"name": "consensus site single-stranded sense (ssDNA)", "DNA": "GATTTAACATAA"}, "B5": {"name": "genomic clone 12 site 1 (dsDNA)", "DNA 1": "CGCTCGAGGGATCCGAATTCAAAGGGGAACACTTTTCTAGAAAGCTTGTCGACGC", "DNA 2": "GCGTCGACAAGCTTTCTAGAAAAGTGTTCCCCTTTGAATTCGGATCCCTCGAGCG"}, "B6": {"name": "genomic clone 6/30 site (dsDNA)", "DNA 1": "CGCTCGAGGGATCCGAATTCAATAAAATCAAAATTTCTAGAAAGCTTGTCGACGC", "DNA 2": "GCGTCGACAAGCTTTCTAGAAATTTTGATTTTATTGAATTCGGATCCCTCGAGCG"}, "B7": {"name": "new-palindrome mutant GATGTAACATAC (dsDNA)", "DNA 1": "GATGTAACATAC", "DNA 2": "GTATGTTACATC"}, "B8": {"name": "consensus mutant position 8 (dsDNA)", "DNA 1": "GATTTAATATAA", "DNA 2": "TTATATTAAATC"}, "B9": {"name": "consensus mutant position 9 (dsDNA)", "DNA 1": "GATTTAACCTAA", "DNA 2": "TTAGGTTAAATC"}, "B10": {"name": "genomic clone 12 site 2 (dsDNA)", "DNA 1": "CGCTCGAGGGATCCGAATTCCCCCCCTTTAAACCAGCGTGGAGGGGGGTCTAGAAAGCTTGTCGACGC", "DNA 2": "GCGTCGACAAGCTTTCTAGACCCCCCTCCACGCTGGTTTAAAGGGGGGGAATTCGGATCCCTCGAGCG"}, "B11": {"name": "consensus mutant position 3 (dsDNA)", "DNA 1": "GAGTTAACATAA", "DNA 2": "TTATGTTAACTC"}, "B12": {"name": "consensus mutant position 10 (dsDNA)", "DNA 1": "GATTTAACAGAA", "DNA 2": "TTCTGTTAAATC"}, "B13": {"name": "genomic clone 8 site (dsDNA)", "DNA 1": "CGCTCGAGGGATCCGAATTCAATGAACGAATCAAATTTCTAGAAAGCTTGTCGACGC", "DNA 2": "GCGTCGACAAGCTTTCTAGAAATTTGATTCGTTCATTGAATTCGGATCCCTCGAGCG"}, "B14": {"name": "new-palindrome mutant GATATAACATAT (dsDNA)", "DNA 1": "GATATAACATAT", "DNA 2": "ATATGTTATATC"}, "B15": {"name": "genomic clone 25 site (dsDNA)", "DNA 1": "CGCTCGAGGGATCCGAATTCAATTCCCCGGATCATTGCAAACAATTTCTAGAAAGCTTGTCGACGC", "DNA 2": "GCGTCGACAAGCTTTCTAGAAATTGTTTGCAATGATCCGGGGAATTGAATTCGGATCCCTCGAGCG"}, "B16": {"name": "hCdc5 consensus site (dsDNA)", "DNA 1": "GATTTAACATAA", "DNA 2": "TTATGTTAAATC"}, "B17": {"name": "consensus mutant position 11 (dsDNA)", "DNA 1": "GATTTAACATCA", "DNA 2": "TGATGTTAAATC"}}, "key": {"[1]": {"target": "T1, hCdc5 DNA-binding domain (aa 1-500) (Homo sapiens, UniProt Q99459 SEQ:1-500)", "T1 sequence (Q99459 1-500)": "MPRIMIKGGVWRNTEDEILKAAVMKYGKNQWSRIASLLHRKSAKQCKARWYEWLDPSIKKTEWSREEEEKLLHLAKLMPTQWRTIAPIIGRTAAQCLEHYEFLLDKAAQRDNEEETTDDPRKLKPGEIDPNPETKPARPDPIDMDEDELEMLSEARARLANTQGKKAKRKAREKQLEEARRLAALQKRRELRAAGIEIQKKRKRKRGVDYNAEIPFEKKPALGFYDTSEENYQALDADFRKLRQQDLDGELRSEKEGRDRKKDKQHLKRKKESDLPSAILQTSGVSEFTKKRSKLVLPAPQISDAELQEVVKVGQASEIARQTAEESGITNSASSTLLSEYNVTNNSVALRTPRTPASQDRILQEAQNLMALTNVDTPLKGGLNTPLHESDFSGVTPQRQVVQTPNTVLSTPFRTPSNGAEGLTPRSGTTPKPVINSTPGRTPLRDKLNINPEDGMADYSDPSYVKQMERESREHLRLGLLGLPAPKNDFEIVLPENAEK", "test": "EMSA; text: abolished", "details": "tags: His6 fusion (pET29c(+), E. coli BL21(DE3), Ni-NTA); chain copies: forms homodimers by glutaraldehyde cross-linking in vitro; label: 32P", "protocol": "Labeled oligonucleotides bearing substitutions in each of the bases comprising the consensus sequence were incubated with recombinant His₆-hCdc5 and gel shift assays were carried out as described above to determine the binding affinities for the mutated sequences. […] Substitutions at any other position abolished DNA-protein binding implicating these residues as critical for the interaction."}, "[2]": {"target": "T1, hCdc5 DNA-binding domain (aa 1-500)", "test": "EMSA; single-stranded antisense", "details": "tags: His6 fusion (pET29c(+), E. coli BL21(DE3), Ni-NTA); chain copies: forms homodimers by glutaraldehyde cross-linking in vitro"}, "[3]": {"target": "T1, hCdc5 DNA-binding domain (aa 1-500)", "test": "EMSA; single-stranded sense", "details": "tags: His6 fusion (pET29c(+), E. coli BL21(DE3), Ni-NTA); chain copies: forms homodimers by glutaraldehyde cross-linking in vitro"}, "[4]": {"target": "T1, hCdc5 DNA-binding domain (aa 1-500)", "test": "EMSA; amino terminus of hCdc5", "details": "tags: His6 fusion (pET29c(+), E. coli BL21(DE3), Ni-NTA); chain copies: forms homodimers by glutaraldehyde cross-linking in vitro", "source_text": "(§1) To determine whether hCdc5 interacts with specific genomic sequences through direct DNA binding, we first surveyed the 12 genomic sequences (totaling ˜36,200 bp) identified by binding selection in yeast for the synthetic consensus binding sequence identified by cyclic amplification and selection in the example above. An exact match was not found, although this was not surprising as the likelihood of finding a unique 12 bp sequence is 6×10⁻⁸, and is predicted to occur by chance ˜180 times in the human genome. We then used the information obtained by scanning mutagenesis to look for sites containing the core “ANCA” motif flanked by palindromes within the genomic clones. […] Complementary oligonucleotides representing the sequences in Table 2 flanked by the non-random oligo flanking sequences used in the oligonucleotide selection experiments described above were used for the gel shift assays. Two of these active binding sites were found in the two clones which represented overlapping sequences from the same region of the genome (clones 6 and 30). All 3 sites shared features of the consensus binding sequence: a core “ANCA” motif, AT-rich flanking palindromes, and a distance between core and palindromes of no more than 3 bp."}, "[5]": {"target": "T1, hCdc5 DNA-binding domain (aa 1-500)", "test": "EMSA; amino terminus of hCdc5; clones 6 and 30 overlap; clone 6 printed as … in table but SEQ 15 given", "details": "tags: His6 fusion (pET29c(+), E. coli BL21(DE3), Ni-NTA); chain copies: forms homodimers by glutaraldehyde cross-linking in vitro", "source_text": "as §1"}, "[6]": {"target": "T1, hCdc5 DNA-binding domain (aa 1-500)", "test": "EMSA; data not shown; protein construct not specified", "details": "tags: His6 fusion (pET29c(+), E. coli BL21(DE3), Ni-NTA); chain copies: forms homodimers by glutaraldehyde cross-linking in vitro"}, "[7]": {"target": "T1, hCdc5 DNA-binding domain (aa 1-500)", "test": "EMSA; 1 nM DNA, 2.5-40 nM protein; 10 mM HEPES pH 7.8, 75 mM KCl, 2.5 mM MgCl2, poly(dI-dC), room temperature", "details": "tags: His6 fusion (pET29c(+), E. coli BL21(DE3), Ni-NTA); chain copies: forms homodimers by glutaraldehyde cross-linking in vitro; label: 32P"}, "[8]": {"target": "hCdc5 W31G W53G W82G mutant (Homo sapiens, UniProt Q99459 SEQ:1-500, W31G,W53G,W82G)", "sequence (Q99459 1-500 W31G/W53G/W82G)": "as the sequence (Q99459 1-500) above, with W31G, W53G, W82G counted along it", "test": "EMSA; data not shown", "details": "label: 32P"}}}
{"binder": "B1", "values": [{"measurement": "binding signal", "setting": "[1]", "result": "0.1 fraction of control"}]}
{"binder": "B2", "values": [{"measurement": "binding result", "setting": "[2]", "result": "no binding"}]}
{"binder": "B3", "values": [{"measurement": "binding signal", "setting": "[1]", "result": "0.2 fraction of control"}]}
{"binder": "B4", "values": [{"measurement": "binding result", "setting": "[3]", "result": "no binding"}]}
{"binder": "B5", "values": [{"measurement": "binding result", "setting": "[4]", "result": "binds"}]}
{"binder": "B6", "values": [{"measurement": "binding result", "setting": "[5]", "result": "binds"}]}
{"binder": "B7", "values": [{"measurement": "binding result", "setting": "[6]", "result": "no binding"}]}
{"binder": "B8", "values": [{"measurement": "binding signal", "setting": "[1]", "result": "0.2 fraction of control"}]}
{"binder": "B9", "values": [{"measurement": "binding signal", "setting": "[1]", "result": "0.2 fraction of control"}]}
{"binder": "B10", "values": [{"measurement": "binding result", "setting": "[4]", "result": "no binding"}]}
{"binder": "B11", "values": [{"measurement": "binding signal", "setting": "[1]", "result": "0.2 fraction of control"}]}
{"binder": "B12", "values": [{"measurement": "binding signal", "setting": "[1]", "result": "0.2 fraction of control"}]}
{"binder": "B13", "values": [{"measurement": "binding result", "setting": "[4]", "result": "no binding"}]}
{"binder": "B14", "values": [{"measurement": "binding result", "setting": "[6]", "result": "no binding"}]}
{"binder": "B15", "values": [{"measurement": "binding result", "setting": "[4]", "result": "no binding"}]}
{"binder": "B16", "values": [{"measurement": "Kd", "setting": "[7]", "result": "~10", "unit": "nM"}, {"measurement": "binding result", "setting": "[8]", "result": "no binding"}]}
{"binder": "B17", "values": [{"measurement": "binding signal", "setting": "[1]", "result": "0.2 fraction of control"}]}
